Results: the nanobody polyreactivity screen of Harvey et al. (2022)

Experiment: yeast display, Sf9 membrane polyspecificity reagent, FACS + sequencing; frameworks hold sequencing errors
How it was run: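 A nanobody's polyreactivity label depends on the gate it was sorted from. Yeast display cells were stained with 10% biotinylated, detergent-solubilized Sf9 membrane reagent for 1 hour at 4 °C, enriched on streptavidin microbeads and sorted by FACS. The low and high (top ~1%) gates were set on anti-HA fluorescence for expression and streptavidin fluorescence for reagent binding.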

Sequence: QVHLVESGGGLVQAGGILRLSCAASGFTFTSNAMGWYRQAPGKEREFVADISNIGGDTTYADSVKGRFTISRDNAKNTVYLQMNSLKPEDTAVYYCNADFAFIENDYWGQGTQVTVSS
- polyreactivity (PSR sort gate): low polyreactivity

Sequence: QVQLVESGGGLVQAGGSLRLSCAASGSTFRANTMGWYRQAPGKERELVAAITSGGSTYYADSVKGRFTISRDNAKNTVYLQMNSLKPEDTAVYYCAADYTGDWADGPHSLREYDYWGQGTQVTVSS
- polyreactivity (PSR sort gate): low polyreactivity

Sequence: QVQLVESGGGIVQAGVSLRLSCAASGITFIRYAMGWYRQAPGKERELVAAISSSGGSTYYADSVKGRFTISRDNAKNTVYLQMISLKPEDTAVYYCAARIPDRQDGYGYWGQGTQVTVSS
- polyreactivity (PSR sort gate): high polyreactivity

Sequence: QVQLVESGGGLVQAGGSLRLSCAASGLTFRYYAMGWYRQAPGKERELVAAITGSGGSTYYADSVKGRFTISRDNAKNTVYLQMNSLKPEDTAVYYCADVIAEYDYFSYYYEYDYWGQGTQVTVSS
- polyreactivity (PSR sort gate): high polyreactivity

Sequence: QVQLVESGGGLVQAGGSLRLSCAASGRTFSYNVMGWYRQAPGKERELVASTYYADSVKGRFTISRDIAKNTVYLQMNSVKPEDTAVYYCNRDKPGLFFTSYNYSSSYDYWGQGTLVTVSS
- polyreactivity (PSR sort gate): low polyreactivity

Sequence: QVQLVESGGGLVQAGGSLRLSCAASGGIFLVNDMGWYRQAPGKERELVAAITSGGGTYYADSVKGRFTISRDNAKNTVYLQMNSLKPEDTAVYYCARDTYRQIVSNESYGYWGQGTQVTVSS
- polyreactivity (PSR sort gate): low polyreactivity

Sequence: QVQLVESGGGLVQSGGSLRLSCAASGRTFYDNVMGWYRQAPGKERELVAAISSGGSTNYADSVKGRFTISRDNAKNTVYLQMNSLKPEDTAFYYCATIGGGGWAYEYWGQGTQVTVSS
- polyreactivity (PSR sort gate): low polyreactivity

Sequence: QVQLVESGGGLDQAGGSLRLSCAASGLIFLVNAMGWYRQPPWKERDLVAAIDLDGGITYADSVKGRFTISRDNAKNTVYLQMNSLKPEDTAVYYCAADPSSYGRFTYDYWGQGTQVTVSS
- polyreactivity (PSR sort gate): low polyreactivity

Sequence: QVHLVESGGGLVKAGGSLRLSCAASGSTSTLYAMGWYRQAPGKERELVAAISKSGGRTYYADSVKGRFTNSRDNAKNTVYLQMNSLKPEDTAVYYCNTVPGRYRTFDYWGQGTQVTVSS
- polyreactivity (PSR sort gate): high polyreactivity

Sequence: QVQLVESWGGLVQAGGSLRLSCAASGSTFDVNAMGWYRQAPGKERELVAAISWNSGSTYYADSVKGRFTISRDNAKNTVYLQMNSLKPEDTAVYYCAARNPFNHPLDYWGQGTQVTVSS
- polyreactivity (PSR sort gate): high polyreactivity

Sequence: QVQLVESGGGLLQAGGTLRLSCAASGITFWSYAMGWYRQAPGKERELVAAITIGGTTYYADSVKGRFTSSRDNAKNTVYLQMNSRKPEDTAVYYCAVDSTDQAPPTYDYWGQGTQVTVSS
- polyreactivity (PSR sort gate): low polyreactivity

Sequence: QVQLVESGGGLVQAGGSLRLSCAASGITIAGYAMGWYRQAPGKERELVAAITIGGRTYYADSVKGRFTISRDNAKNSVYLQMNSLKPEDTAVYYCAGVVRALTIKYGYWGQGTQVTVSS
- polyreactivity (PSR sort gate): high polyreactivity

Sequence: QVQLVESGGGLVQAGGSLRLICADYGRTFKWYAMGWYRQAPGKERELVAVITGLGGSTYYADSVKGRFTISRDNAKNTVYLQMKSLKPEDTAVYYCAARGYSHVASRLYYYWGQGNQVTVSS
- polyreactivity (PSR sort gate): high polyreactivity

Sequence: QVQLVESGGGLVQAGGSLRLSCAASGRTLSTNGMGWYRQAPGKERELVATITRRGGRTYYADSVKGRFTISRDNAKNTVYLQMNSLKPEDTAVYYCATEQADRRVTYKYWGQGTQVTVSS
- polyreactivity (PSR sort gate): high polyreactivity

Sequence: QVQLVESGGGLVQAGGSLRLSCAASGITFDLYDMGSYRQAPGKERELVAAITDADSTYYADSVKGRFTISRDNAKNTVLLQMNSLKPEDTAVYYCAATSYSHTKIRYDYWVQGTQVTVSS
- polyreactivity (PSR sort gate): low polyreactivity

Sequence: QVQLVESGGGLFQAGGSLSLSCAASGRNLSGYDMGWYRQAQGKERELVAAITRGGTTYYADSVKGRFTISRDNSKNTVYLQMNSLKADDTAVVYTVSYAQYDYWGQGTQVTVSS
- polyreactivity (PSR sort gate): low polyreactivity

Sequence: QVQLVESGGGLVQAGGSLRLSCAASGGIFKSYAMGWYRQAPGKERELVAAISASGGRTYYADSVKGRFTISRDNAKNTVYLQMNSLKPEDTAVYYCAAKVGYTTALNYWGQGTQVTVSS
- polyreactivity (PSR sort gate): high polyreactivity

Sequence: QVQLVESGGGLVQAGGSLRLSCAASGSTFADYAMGWYRQAPGKERELVAAITQSGGSTSYADSVKGRFTISRDNAKNTVYLQMNSLKPEDTAVYYCNVDDSTWIGAYRRYDYWGQGTQVTVSS
- polyreactivity (PSR sort gate): low polyreactivity

Sequence: QVQLVESGGGLVQAGGSLRLSCAASGGIFPLYTMGWYRQATGKERELVASNTGSRASTYYADSVKGRFTISRDKAKNTVYLPMNSLNPEDTGVYDCKADVYVYSVTSHYPSYRLDYWGQGTQVTVAS
- polyreactivity (PSR sort gate): high polyreactivity

Sequence: QVHLVESGGGLVQAGGSLRLSCAASGSIFKKNTLGWYRQAPGKERELVAVISSSGTRTYYADSVKGRFTISRDNAKNTVYLQMNSLKPEDTAVYYCARRAGGERDDYWGQGTQVTVSS
- polyreactivity (PSR sort gate): high polyreactivity

Sequence: QVQLVESGGGLVQAGGSLRLSCAASGLIIPAYAMGWYRQAPGKEREMVATITWRGGSTYYADSVKGRFTISRDNAKNTVYLQMNSLKPEDTAVDYCATRPRYYYFRYDYWGQGSQVTVSS
- polyreactivity (PSR sort gate): high polyreactivity

Sequence: QVQLVESGGGLVQAGGSLRLSCAASGRIFTGNVMGWYRQAPGKERELVAAISYGGGSTNYADSVKGRFTISRDNAKNTVYLQMNSLKPEDTAVYYCAACIKRYLSYYTRYGYWGQGTQVTVSS
- polyreactivity (PSR sort gate): high polyreactivity

Sequence: QVQLVESGGGLVQAGGSLRLSCAPSGSISFSNALGWYRQAPGKERELVASITSGGSTKYADSVKGRFTFSRDNAKNTVYLQMNSLQPEDTAVYYCNADSPESVYDEYDYWGQGTQVTVSS
- polyreactivity (PSR sort gate): low polyreactivity

Sequence: QVQLVESGGGLVQAGGSLRLSCAASGITFQRYALGWYRQAPGKERELVAAITRGGSTNYADSVKGRFTISRDNAKNTVYLQMNSLKPEDTAVYYCAAGARYGYGYWGQGTQVTVSS
- polyreactivity (PSR sort gate): high polyreactivity

Sequence: QVQLVESGGGLVQAGGSLRLSCAASAFTFGNYAMGWYRQAPGKERELVAVISRGGSTYYADSVKGRFTISRDYAKNTVYLQMNSLKPEDTAVYFCAARAFPPYGYDYWGQGTQVTVSS
- polyreactivity (PSR sort gate): high polyreactivity

Sequence: QVQLVESGGGLVQAGGSLRLSCAASGFIFYQYTMGWYRQAPGKERELVAAISSGGSTYYADSVKGRFTISRDNAKNTVYLQMNSLKPEDTAVYYCAAVAYGNWYRYYYWGQGTQVTVSS
- polyreactivity (PSR sort gate): high polyreactivity

Sequence: QVQLVESGGGLVQAGGSLRLSCAATGSTFTAYAMAWYRQAPGKESELVAAIRRIGGDTYYADSVKGRFTISRDNAKNTVYLQMNSLKPEDSAVYYCAAFRWRSPQYWYHSMDHWGQGSQVTVSS
- polyreactivity (PSR sort gate): low polyreactivity

Sequence: QVQLVESGGGLVQAGGSLRLSCAASGTICYPYAMGWYRQAPGKERELVASISWSGGSTRYADSVKGRFTISRDNAKNTVYLQMNSLKPEDTAVYYCAARYILSKYGSGVRYNYWGQGTQVTVSS
- polyreactivity (PSR sort gate): high polyreactivity

Sequence: QVQLVESGGGLVQAGGSLRLSCAASGRIFKGYAMGWYRQAPGKERELVAAITISGGSTYYADSVKGRFTISRDNAKNTVYLQMNSLKPEDTAVYYCAARKFVYWYGMEYWGQGSQVTVSS
- polyreactivity (PSR sort gate): low polyreactivity

Sequence: QVQLVESGGGLVQAGGSLRLSCAASGSICYSNARGWYRQAPGKERELVAAISFTGGTTYNADSVKGRFTISRDNAKNTVYLQMNSLKPEDTAVYFCNKLYHHYYGYWGQGTQVTVSS
- polyreactivity (PSR sort gate): high polyreactivity

Sequence: QVQLVESGGGLVQAGGSLRLSCAASGITFIRYAMGWYTQAPGKERELVAAIDRSGGSTYYADSVKGRFTISRDTAKNTVYLQMNSLKPEDTAVYYCAARRVRGLDYWGQGTQVTVSS
- polyreactivity (PSR sort gate): high polyreactivity

Sequence: QVQLVESGGGLVQAGGSLRLSCAASGRTFRTYAMGWYRQAPGKETELVAANSSGGSTNYADSVKGRFTISRDNEKNTVYLQMNSLKPEDTAVYYCATRPTSDFVKRRVYEWLDYWGQGTQVTVSS
- polyreactivity (PSR sort gate): low polyreactivity
